Results reported in publication PMC12809806, “Structural Analysis of Tilvestamab in Complex with AXL” (ACS Omega, 2025).

How the values were obtained:
[1] = target: T1, Monomeric sAXL, the soluble extracellular domain of AXL (human, UniProt P30530); assay: SEC-SAXS; SWING beamline (SOLEIL), HPLC mode; BioSEC-3 300 or BioSEC-5 1000 column in PBS or 10 mM histidine, 150 mM NaCl, pH 6; proteins alone and mixed, in solution; details: both partners purified
T1 construct: AXL receptor tyrosine kinase, human, soluble extracellular domain released from AXL-Fc by papain; also called monomeric AXL extracellular domain; source: papain digestion of AXL-Fc (Evitria), followed by protein A purification; not shown: Fc, C-terminal, cleaved

[2] = target: T2, Human AXL-Fc containing the entire extracellular domain of human AXL (Homo sapiens, UniProt P30530); assay: as above; details: both partners purified
T2 construct: AXL receptor tyrosine kinase, human, entire extracellular domain (two Ig-like and two fibronectin type III domains); Dimer through the C-terminal Fc; also called dimeric AXL-Fc; source: bought: Evitria (Switzerland); not shown: Fc, C-terminal, kept
T2 sequence (P30530 26-451): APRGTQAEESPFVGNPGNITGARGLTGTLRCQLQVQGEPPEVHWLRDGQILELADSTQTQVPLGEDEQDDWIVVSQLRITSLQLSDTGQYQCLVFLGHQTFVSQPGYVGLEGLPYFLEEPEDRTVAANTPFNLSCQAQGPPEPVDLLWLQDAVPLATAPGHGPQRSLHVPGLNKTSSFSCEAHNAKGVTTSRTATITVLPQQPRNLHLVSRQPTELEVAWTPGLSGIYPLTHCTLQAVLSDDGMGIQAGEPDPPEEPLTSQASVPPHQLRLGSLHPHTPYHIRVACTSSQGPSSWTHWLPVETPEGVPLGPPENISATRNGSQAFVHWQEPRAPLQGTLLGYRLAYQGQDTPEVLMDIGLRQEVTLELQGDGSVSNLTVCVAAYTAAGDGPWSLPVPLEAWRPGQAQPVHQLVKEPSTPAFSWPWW

T1 sequence (P30530 26-451): as above

B1: Fab fragment of tilvestamab (Fab, V domains shown)
VH: EVQLVESGGGLVQPGGSLRLSCAASGYSFTDFYINWVRQAPGKGLEWVARIFPGGDNTYYNEKFKGRFTLSADTSKSTAYLQMNSLRAEDTAVYYCARRGLYYAMDYWGQGTLVTVSS
VL: DIQMTQSPSSLSASVGDRVTITCRSSQSLVHSNGIPYLHWYQQKPGKAPKLLIYRVSNRFSGVPSRFSGSGSGTDFTLTISSLQPEDFATYYCSQGTHVPPTFGQGTKVEIK
notes: heavy chain (HC) of the Fab; light chain (LC) of the Fab; also called tilvestamab Fab; source: papain proteolysis of tilvestamab (immobilized papain), MabSelect SuRe column
stoichiometry N [1]: 1 Fab per sAXL (1:1) | stoichiometry N [2]: 1 Fab per AXL-Fc chain (2:2)
